The source of these data is publication PMC5316805, “Potent single-domain antibodies that arrest respiratory syncytial virus fusion protein in its prefusion state” (Nature Communications, 2017).

Test [1] deals with RSV A2 F, full length, on RSV A2-infected cells and virions (human respiratory syncytial virus A2, UniProt P03420). Nature of the test: cell-based or functional assay.
Test [2] addresses T1, prefusion-stabilized RSV F (DS-Cav1) with a C-terminal Strep-tag II and 6X HisTag (human respiratory syncytial virus A2 …, stabilised).
T1 construct: RSV fusion (F) protein, F2 subunit (N-terminal cut product of F0) of DS-Cav1; RSV fusion (F) protein, soluble part of the F1 subunit (C-terminal cut product of F0) of DS-Cav1; also called prefusion F; prefusion RSV F; source: purified; not shown: Strep-tag II, C-terminal, kept; His6, C-terminal, kept; copies: 3 + 3
Nature of the test: SPR; DS-Cav1 captured by its His tag on an NTA chip to ~530 RU each cycle (Biacore X100); VHH 2-fold dilutions 5 nM to 39.1 pM in HBS-P+; double-reference subtracted, 1:1 binding model (Scrubber). The conditions noted are these: both partners purified. Background: In SPR one partner is held on a chip, and binding of the other changes the refractive index at the surface.

A value given as a limit tells only on which side of the number the result lay.

B1: F-VHH-L66 (VHH)
VHH: QVQLQESGGGLVQPGGSLRLSCAASGFTLDYYYIGWFRQAPGKEREGVSCISSSHGSTYYADSVKGRFTISRDNAKNTVYLQMNSLKPEDTAVYYCATVAVAHFRGCGVDGMDYWGKGTQVTVSS
notes: llama VHH; also in PDB 5TOK; Disulfide between Cys50 (CDR2) and Cys100c (CDR3), Kabat numbering; source: P. pastoris GS115, secreted, purified (ammonium sulfate precipitation, HisTrap HP, Superdex 75); not shown: His6, C-terminal, kept
On to B1, for which the “plaque-reduction neutralisation of RSV A2 and RSV B49 on Vero cells, IC50” value in test [1] is below 0.1 nM. Further, in test [2], binding was put at a Kd of 0.154 nM; the off-rate constant (koff) (usually the first-order rate constant of dissociation) worked out at 5e-05 s⁻¹; the kon (in general, the rate constant with which the complex forms) is 330000 M⁻¹ s⁻¹.

B2: F-VHH-4 (VHH)
VHH: QVQLQESGGGLVQPGGSLRLSCAASGFTLDYYYIGWFRQAPGKEREAVSCISGSSGSTYYPDSVKGRFTISRDNAKNTVYLQMNSLKPEDTAVYYCATIRSSSWGGCVHYGMDYWGKGTQVTVSS
notes: llama VHH; also in PDB 5TP3 and 5TOJ; Disulfide between Cys50 (CDR2) and Cys100c (CDR3), Kabat numbering; the Pichia-made protein was used in the complex crystals; also called clone 4; source: P. pastoris GS115, secreted, purified (ammonium sulfate precipitation, HisTrap HP, Superdex 75); not shown: His6, C-terminal, kept
B2: in test [1], the “plaque-reduction neutralisation of RSV A2 and RSV B49 on Vero cells, IC50” value was below 0.1 nM. For the same molecule, in test [2], the dissociation constant (Kd) (usually the equilibrium constant for the complex coming apart) was below 0.018 nM, the koff was below 1e-05 s⁻¹ and the on-rate constant (kon) was determined as 570000 M⁻¹ s⁻¹.
